Source: US5972678A, “Animal 2-5A dependent RNases” (Cleveland Clinic Foundation, priority 1995, dated 1999)

Legend:
[1] = system: 2-5A-dependent RNase; details: cited from earlier work
[2] = system: poly(U); test: ribonuclease assay with 2-5A-cellulose, poly(U) substrate; type: biochemical
Protocol: (§1) FIG. 5B is reticulocyte lysate pretreated to remove endogeous 2-5A-dependent RNase and is incubated in the absence of added mRNA (.box-solid.), in the presence of human 2-5A-dependent RNase mRNA without inhibitor (.smallcircle., .quadrature.) or in the presence of both 2-5A-dependent RNase mRNA and cycloheximide (50 μg per ml (.circle-solid.). See Example. Subsequently, the recombinant 2-5A-dependent RNase (or controls) is adsorbed to 2-5A-cellulose and ribonuclease assays are performed after extensive washing of the matrix to reduce general nuclease activity. Radiolabeled substrate RNA was either poly(U) (.smallcircle., .circle-solid., .box-solid.) or poly(C) (.quadrature.).
(§2) Ribonuclease assays with recombinant 2-5A-dependent RNase are performed after immobilizing and purifying the translation product on the activating affinity matrix, 2-5A-cellulose. It was previously shown that murine L cell 2-5A-dependent RNase bound to 2-5A-cellulose, resulting in ribonuclease activity against poly(U) but not poly(c). […]
(§3) Briefly, lysates are adsorbed to about […] of 2-5A-cellulose on ice for about two hours. […] The matrix is then incubated with poly(U)-[^32 P]Cp or poly(C)-[^32 P]Cp (both at about 16 μM in nucleotide equivalents) at about 30° C. and the levels of acid-precipitable radioactive RNA are determined by filtration on glass-fiber filters.

[3] = system: poly(C); test: ribonuclease assay with 2-5A-cellulose, poly(C) substrate; type: biochemical; details: isolated on 2-5A-cellulose
Protocol: as §1, §2, §3

Nc1ncnc2c1ncn2[C@@H]1O[C@H](COP(=O)(O)OP(=O)(O)OP(=O)(O)O)[C@@H](O)[C@H]1O [ATP]
stimulatory effect on 2-5A-dependent RNase activity [1]: two-fold

B1: recombinant human 2-5A-dependent RNase: full-length human 2-5A-dependent RNase, amino acids 1-741 in Table I, produced in vitro in reticulocyte lysate (protein, UniProt Q05823 1-741, looked up)
chain: MESRDHNNPQEGPTSSSGRRAAVEDNHLLIKAVQNEDVDLVQQLLEGGANVNFQEEEGGWTPLHNAVQMSREDIVELLLRHGADPVLRKKNGATPFILAAIAGSVKLLKLFLSKGADVNECDFYGFTAFMEAAVYGKVKALKFLYKRGANVNLRRKTKEDQERLRKGGATALMDAAEKGHVEVLKILLDEMGADVNACDNMGRNALIHALLSSDDSDVEAITHLLLDHGADVNVRGERGKTPLILAVEKKHLGLVQRLLEQEHIEINDTDSDGKTALLLAVELKLKKIAELLCKRGASTDCGDLVMTARRNYDHSLVKVLLSHGAKEDFHPPAEDWKPQSSHWGAALKDLHRIYRPMIGKLKFFIDEKYKIADTSEGGIYLGFYEKQEVAVKTFCEGSPRAQREVSCLQSSRENSHLVTFYGSESHRGHLFVCVTLCEQTLEACLDVHRGEDVENEEDEFARNVLSSIFKAVQELHLSCGYTHQDLQPQNILIDSKKAAHLADFDKSIKWAGDPQEVKRDLEDLGRLVLYVVKKGSISFEDLKAQSNEEVVQLSPDEETKDLIHRLFHPGEHVRDCLSDLLGHPFFWTWESRYRTLRNVGNESDIKTRKSESEILRLLQPGPSEHSKSFDKWTTKINECVMKKMNKFYEKRGNFYQNTVGDLLKFIRNLGEHIDEEKHKKMKLKIGDPSLYFQKTFPDLVIYVYTKLQNTEYRKHFPQTHSPNKPQCDGAGGASGLASPGC
modifications: full-length
half-life of poly(U) degradation ([2]; enzyme from reticulocyte lysate bound to 2-5A-cellulose, about 30° C.): about 10 minutes | ribonuclease activity towards poly(U) (in words) ([2]; isolated on 2-5A-cellulose): potent ribonuclease activity | ribonuclease activity against poly(C) (in words) [3]: none
